The target of data set [1] is T1, CsWRKY40 (Camellia sinensis, UniProt A0A4S4ET85 1-292). Description: competition; unlabelled competitor against biotin probe N1; shift gradually reduced with increasing cold probe; LightShift Chemiluminescent EMSA kit (ThermoFisher) per instructions; buffer, salt, pH and temperature not stated. To be noted: protein: recombinant; tags: GST (pGEX-4T-1); blunt.
Data set [2] deals with T1, CsWRKY40. Description: EMSA; LightShift Chemiluminescent EMSA kit (ThermoFisher) per instructions; buffer, salt, pH and temperature not stated. To be noted: protein: recombinant; tags: GST (pGEX-4T-1); label: 3' biotin on both strands; blunt.

T1 sequence (A0A4S4ET85 entry or part of it): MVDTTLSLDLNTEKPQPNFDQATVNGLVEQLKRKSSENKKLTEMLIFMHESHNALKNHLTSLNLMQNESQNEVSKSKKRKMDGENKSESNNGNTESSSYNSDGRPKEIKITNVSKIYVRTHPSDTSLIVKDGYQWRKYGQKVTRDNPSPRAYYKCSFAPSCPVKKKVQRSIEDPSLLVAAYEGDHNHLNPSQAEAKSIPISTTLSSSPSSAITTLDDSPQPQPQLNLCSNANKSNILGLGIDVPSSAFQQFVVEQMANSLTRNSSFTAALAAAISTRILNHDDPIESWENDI

B1: cold probe (W box 2) (dsDNA)
DNA 1: TTTATTTAAGAATTGACCGTAGATAACTTT
DNA 2: AAAGTTATCTACGGTCAATTCTTAAATAAA
Take B1: the binding result with CsWRKY40 [1] was “binds”.

B2: mutant probe (TTGACC to AAAAAA) (dsDNA)
DNA 1: TTTATTTAAGAAAAAAAAGTAGATAACTTT
DNA 2: AAAGTTATCTACTTTTTTTTCTTAAATAAA
Take B2: in the data set with CsWRKY40 [2], the binding result is on record as “no binding”.

B3: CsPDX2.1 promoter W box 2 biotin probe (dsDNA)
DNA 1: TTTATTTAAGAATTGACCGTAGATAACTTT
DNA 2: AAAGTTATCTACGGTCAATTCTTAAATAAA
As for B3, the binding result with CsWRKY40 [2] was “binds”.
